From US20130216529A1 (TALIGEN THERAPEUTICS, published 2013) come the findings set out here.

The target in assay [1] is T1, recombinant human factor B (human, UniProt P00751 26-764, biotinylated (EZ-link) in the Octet assay only; sites not stated).
T1 construct: also called purified factor B protein
Kind of assay: dilution ELISA, factor B coated at 25 ng/well [upper panel].

Assay [2] has as its target T1, recombinant human factor B. Kind of assay: dilution ELISA, factor B coated at 50 ng/well [upper panel]. For orientation: ELISA stands for enzyme-linked immunosorbent assay.
In assay [3] the target is T1, recombinant human factor B. Kind of assay: BLI (ForteBio Octet), biotinylated human factor B on neutravidin sensors, Fab' at 1e-7 M; KD = Kdissoc/Kassoc. Here is the method: (§1) Binding kinetics of the Fab′ fragments were analyzed using a FortéBio® Octet® biosensor (FortéBio, Inc., Menlo Park, Calif.). Recombinant human factor B was biotinylated with the EZ-link biotinylation system (Pierce Biotechnology, Rockford, Ill.) according to the manufacturer's instructions. The antigen was then coupled to neutravidin-coated sensors (FortéBio, Inc., Menlo Park, Calif.) according to the manufacturer's instructions. Fab′ binding was then monitored in real time using bio-layer interferometry analysis and software provided by the manufacturer. Antigen binding affinities were calculated for the tested Fab′ fragments based on the measured association (“Kassoc”) and dissociation (“Kdissoc”) constants. Preferably humaneered antibodies or antibody fragments with equilibrium dissociation constants the same or […] than that of the reference antibody (i.e., mAb 1379) or antibody fragment (i.e., TA10).
(§2) Fully humaneered Fab′ fragments were isolated by colony lift binding assays and confirmed as factor B binders by ELISA. Humaneered Fab′ fragments showing strong positive signals by ELISA were purified and further characterized in comparison to the reference Fab′ fragment TA10, which has murine V-region sequences from mAb 1379. Kinetics of Fab′ fragment binding to recombinant human factor B were analyzed with the FortéBio® Octet® system by bio-layer interferometry, providing real time label-free monitoring of protein-protein interactions. Measured association (Kassoc) and dissociation (Kdissoc) constants, and calculated equilibrium dissociation constants (KD=Kdissoc/Kassoc) (i.e., binding affinity), are shown in Table 1.

Assay [4] concerns the target T1, recombinant human factor B. Kind of assay: BLI (ForteBio Octet), biotinylated human factor B on neutravidin sensors, Fab' at 1e-7 M. Here is the method: as §1, §2
(BLI is a label-free optical method that tracks binding on a fibre tip over time.)

For assay [5], the target named is T1, recombinant human factor B. Kind of assay: dilution ELISA, factor B coated at 100 ng/well [lower panel]. Here is the method: (§3) Next, the ability of the cloned VH and Vκ sequences to bind factor B was assayed. The cloned VH- and Vκ-regions were expressed in bacteria as Fab′ fragments, purified, and tested for binding to factor B in a dilution ELISA. FIG. 4 compares factor B binding of the cloned Fab′ TA003 to that of a Fab′ derived from mAb1379. As expected, both the cloned Fab′ and murine Fab produced binding curves that were dependent on both antibody and antigen concentration.

Assay [6] concerns the target T1, recombinant human factor B. Kind of assay: dilution ELISA, factor B coated at 50 ng/well [lower panel]. Here is the method: as §3
The target in assay [7] is T1, recombinant human factor B. Kind of assay: dilution ELISA, factor B coated at 25 ng/well [lower panel]. Here is the method: as §3

As usually defined, the EC50 (read off the curve) is the concentration giving half of the maximal effect. What is called Kd is the constant that tells how readily two partners part at equilibrium. What is called koff is the rate constant with which the complex falls apart. The kon is the rate constant with which the complex forms.

T1 sequence (P00751 26-764): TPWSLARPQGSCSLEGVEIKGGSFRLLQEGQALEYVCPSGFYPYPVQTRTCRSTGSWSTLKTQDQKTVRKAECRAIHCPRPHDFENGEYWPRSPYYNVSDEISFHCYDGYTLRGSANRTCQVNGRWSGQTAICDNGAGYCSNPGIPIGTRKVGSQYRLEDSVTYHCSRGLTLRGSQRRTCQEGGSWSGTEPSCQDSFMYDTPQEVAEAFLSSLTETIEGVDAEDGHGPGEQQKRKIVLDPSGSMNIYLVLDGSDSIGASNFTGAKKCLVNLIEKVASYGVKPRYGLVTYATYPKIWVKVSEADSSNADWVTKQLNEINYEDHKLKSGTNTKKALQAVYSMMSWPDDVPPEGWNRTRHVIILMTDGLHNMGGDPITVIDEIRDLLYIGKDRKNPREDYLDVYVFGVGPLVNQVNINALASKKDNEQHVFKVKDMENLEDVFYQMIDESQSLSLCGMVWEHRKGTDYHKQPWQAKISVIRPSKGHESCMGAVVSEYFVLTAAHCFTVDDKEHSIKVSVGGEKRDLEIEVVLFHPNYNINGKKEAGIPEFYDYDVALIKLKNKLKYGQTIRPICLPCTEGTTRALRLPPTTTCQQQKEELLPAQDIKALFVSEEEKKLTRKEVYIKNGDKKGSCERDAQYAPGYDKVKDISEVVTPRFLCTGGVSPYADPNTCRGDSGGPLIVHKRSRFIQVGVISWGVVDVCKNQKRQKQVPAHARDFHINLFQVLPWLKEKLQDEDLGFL

B1: cloned Fab' TA003 (Fab, V domains shown)
VH: EVQLQQSGPELVKPGASVKIPCKASGYTFTDYNMDWVKQSHGKSLEWIGDINPNNGGTIYNQKFKGKATLTVDKSSSTAYMELRSLTSEDTAVYYCARGYYSNSAWFAYWGQGTLVTVSA
VL: DIVMSQSPSSLAVSAGEKVTMSCKSSQSLLNSRTRKNYLAWYQQKPGQSPKLLIYWASTRESGVPDRFTGSGSGTDFTLTISSVQAEDLAVYYCKQSYNLPWTFGGGTKLEIKR
notes: No sentence ties the name TA003 to these numbers directly; also called the cloned Fab'; purified Fab' protein (cloned V-regions from the hybridoma producing mAb 1379)
B1: the “EC50 (read off the curve)” value in assay [1] was approximately 40 nM; in assay [2], approximately 20 nM.

B2: TA10 reference Fab' (Fab, V domains shown)
VH: EVQLQQSGPELVKPGASVKIPCKASGYTFTDYNMDWVKQSHGKSLEWIGDINPNNGGTIYNQKFKGKATLTVDKSSSTAYMELRSLTSEDTAVYYCARGYYSNSAWFAYWGQGTLVTVSS
VL: DIVMSQSPSSLAVSAGEKVTMSCKSSQSLLNSRTRKNYLAWYQQKPGQSPKLLIYWASTRESGVPDRFTGSGSGTDFTLTISSVQAEDLAVYYCKQSYNLPWTFGQGTKLEIK
Regarding B2, the Kd in assay [3] stood at 6.55 nM. The koff in assay [4] turned out to be 0.00296 s⁻¹.

B3: Fab' derived from mAb 1379 by papain digestion (Fab, V domains shown)
VH: EVQLQQSGPELVKPGASVKIPCKASGYTFTDYNMDWVKQSHGKSLEWIGDINPNNGGTIYNQKFKGKATLTVDKSSSTAYMELRSLTSEDTAVYYCARGYYSNSAWFAYWGQGTLVTVSA
VL: DIVMSQSPSSLAVSAGEKVTMSCKSSQSLLNSRTRKNYLAWYQQKPGQSPKLLIYWASTRESGVPDRFTGSGSGTDFTLTISSVQAEDLAVYYCKQSYNLPWTFGGGTKLEIKR
notes: Papain fragment of the murine IgG1 kappa hybridoma antibody mAb 1379 (ATCC PTA-6230); also called murine Fab
On to B3, for which the “EC50 (read off the curve)” value in assay [5] was approximately 8 nM; in assay [6], approximately 10 nM; in assay [7], approximately 30 nM.

B4: TA103-2 Fab' (Fab, V domains shown)
VH: QVQLVQSGAEVKKPGASVKVSCKASGYSFTDYYMTWVRQAPGQGLEWMGWINPNSGGTKYAQKFQGRVTMTRDTSISTAYMELSRLRSDDTAVYYCARGYYANSAWFAYWGQGTLVTVSS
VL: DIVMTQSPDSLAVSLGERATINCKSSQSLLNSRTSKNYLAWYQQKPGQPPKLLIYWASTRESGVPDRFSGSGSGTDFTLTISSLQAEDVAVYYCKQVYNLPWTFGQGTKLEIK
notes: Humaneered Fab' expressed in E. coli
Turning to B4, the Kd in assay [3] amounted to 3.73 nM. For the same molecule, the koff in assay [4] was 0.0028 s⁻¹.

B5: TA102-4 Fab' (Fab, V domains shown)
VH: QVQLVQSGAEVKKPGASVKVSCKASGYSFTDYYMTWVRQAPGQGLEWMGWINPNSGGTKYAQKFQGRVTMTRDTSISTAYMELSRLRSDDTAVYYCARGYYANSAWFAYWGQGTLVTVSS
VL: DIVMTQSPDSLAVSLGERATINCKSSQSVLNSRNKKNYLAWYQQKPGQPPKLLIYWASTRESGVPDRFSGSGSGTDFTLTISSLQAEDVAVYYCKQVYNLPWTFGQGTKLEIK
notes: as for B4
Take B5: in assay [3], the Kd was 5.4 nM. For the same molecule, in assay [4], the koff was found to be 0.00437 s⁻¹ and the kon amounted to 810000 M⁻¹ s⁻¹.

B6: TA101-1 Fab' (Fab, V domains shown)
VH: QVQLVQSGAEVKKPGASVKVSCKASGYSFTDYYMTWVRQAPGQGLEWMGWINPNSGGTKYAQKFQGRVTMTRDTSISTAYMELSRLRSDDTAVYYCARGYYANSAWFAYWGQGTLVTVSS
VL: DIVMTQSPDSLAVSLGERATINCKSSQSLLNSSTSKNYLAWYQQKPGQPPKLLIYWASTRESGVPDRFSGSGSGTDFTLTISSLQAEDVAVYYCKQVYNLPWTFGQGTKLEIK
notes: as for B4
B6: in assay [3], the Kd was 4.53 nM. Besides, the koff in assay [4] is 0.00233 s⁻¹.
